# Results published in PMC6536497.
# Columns and labels:
# [1] = biological target: LGTV NS2B/3pro_D19A_E117A (Langat virus) (UniProt P29837); assay: pull-down
# [2] = biological target: LGTV NS2B/3pro_E117A (Langat virus) (UniProt P29837); assay: pull-down
substance,measurement,setting,value
GFP-tagged TRAF6 (TRAF6-GFP) (from UniProt Q9Y4K3 1-522) (natural protein),percent decrease in pull down of TRAF6 relative to NS2B/3pro WT (densitometry),[1],58.6%
same,percent decrease in pull down of TRAF6 relative to NS2B/3pro WT (densitometry),[2],56.1%
